The values below are quoted from earlier work in patent US20070178499.

Data set [1] has as its system Aart(S) 6-finger (artificial). The settings on record: CITED?; affinity stated without method.
The subject of data set [2] is E2C(S) 6-finger (artificial). Conditions: CITED (Beerli 2000).

One may read the Kd as the concentration at which binding is half-saturated. In the case of Aart 18-bp target site, the Kd in data set [1] was 7.5 pM. As to E3 site of erbB-3, in data set [2], the binding signal (fold loss in affinity vs n8) was 15.
